Laboratory results reported in article PMC3314968, “The UBAP1 Subunit of ESCRT-I Interacts with Ubiquitin via a SOUBA Domain” (Structure(London, England:1993), 2012).

Molecular target: T1, monoubiquitin (SIGMA U6253) (UniProt P0CG48 1-76)
T1 construct: ubiquitin, the 76-residue cut product of a ubiquitin precursor; source: bought: SIGMA U6253
Assay: ITC; Microcal ITC200; 20 mM Tris-HCl (pH 7.5), 100 mM NaCl, 1 mM TCEP; SOUBA domain at 150 μM in the cell, 38 injections of monoubiquitin at 3 mM; single set of independent sites
Settings: both partners purified

Kd: ~70 µM
B1: human UBAP1 SOUBA domain (389-502), wild-type (domain or fragment, UniProt Q9NZ09 389-502, looked up)
chain: SPSERQCVETVVNMGYSYECVLRAMKKKGENIEQILDYLFAHGQLCEKGFDPLLVEEALEMHQCSEEKMMEFLQLMSKFKEMGFELKDIKEVLLLHNNDQDNALEDLMARAGAS
notes: UBAP1, human, residues 389-502 (SOUBA domain); The His6 tag is followed by a TEV protease cleavage site; whether it was cut is told in the Supplemental Experimental Procedures; Used unlabeled or 15N- (13C/15N-) labeled in NMR; also called UBAP1(389-502); UBAP1_389-502; source: recombinant, from the pOPTH(tev) expression vector, purified (details in Supplemental Experimental Procedures)
